Test results taken from publication PMC11539920 (Nature, 2024).
Read-outs that look alike come from different tables or passages of the source.

B1: GST-tagged BLM fragment, residues 636–1298 (domain or fragment)
chain: not shown
B2: GST-tagged BLM fragment, residues 636–857 (domain or fragment)
chain: not shown
B3: GST-tagged BLM fragment, residues 2–635 (domain or fragment, human, UniProt P54132 2-635, looked up)
chain: AAVPQNNLQEQLERHSARTLNNKLSLSKPKFSGFTFKKKTSSDNNVSVTNVSVAKTPVLRNKDVNVTEDFSFSEPLPNTTNQQRVKDFFKNAPAGQETQRGGSKSLLPDFLQTPKEVVCTTQNTPTVKKSRDTALKKLEFSSSPDSLSTINDWDDMDDFDTSETSKSFVTPPQSHFVRVSTAQKSKKGKRNFFKAQLYTTNTVKTDLPPPSSESEQIDLTEEQKDDSEWLSSDVICIDDGPIAEVHINEDAQESDSLKTHLEDERDNSEKKKNLEEAELHSTEKVPCIEFDDDDYDTDFVPPSPEEIISASSSSSKCLSTLKDLDTSDRKEDVLSTSKDLLSKPEKMSMQELNPETSTDCDARQISLQQQLIHVMEHICKLIDTIPDDKLKLLDCGNELLQQRNIRRKLLTEVDFNKSDASLLGSLWRYRPDSLDGPMEGDSCPTGNSMKELNFSHLPSNSVSPGDCLLTTTLGKTGFSATRKNLFERPLFNTHLQKSFVSSNWAETPRLGKKNESSYFPGNVLTSTAVKDQNKHTASINDLERETQPSYDIDNFDIDDFDDDDDWEDIMHNLAASKSSTAAYQPIKEGRPIKSVSERLSSAKTDCLPVSSTAQNINFSESIQNYTDKSAQNLA
B4: BARD1 (subunit of the purified BRCA1–BARD1 complex) (natural protein, human, UniProt Q99728 1-777, looked up)
chain: MPDNRQPRNRQPRIRSGNEPRSAPAMEPDGRGAWAHSRAALDRLEKLLRCSRCTNILREPVCLGGCEHIFCSNCVSDCIGTGCPVCYTPAWIQDLKINRQLDSMIQLCSKLRNLLHDNELSDLKEDKPRKSLFNDAGNKKNSIKMWFSPRSKKVRYVVSKASVQTQPAIKKDASAQQDSYEFVSPSPPADVSERAKKASARSGKKQKKKTLAEINQKWNLEAEKEDGEFDSKEESKQKLVSFCSQPSVISSPQINGEIDLLASGSLTESECFGSLTEVSLPLAEQIESPDTKSRNEVVTPEKVCKNYLTSKKSLPLENNGKRGHHNRLSSPISKRCRTSILSTSGDFVKQTVPSENIPLPECSSPPSCKRKVGGTSGRKNSNMSDEFISLSPGTPPSTLSSSSYRRVMSSPSAMKLLPNMAVKRNHRGETLLHIASIKGDIPSVEYLLQNGSDPNVKDHAGWTPLHEACNHGHLKVVELLLQHKALVNTTGYQNDSPLHDAAKNGHVDIVKLLLSYGASRNAVNIFGLRPVDYTDDESMKSLLLLPEKNESSSASHCSVMNTGQRRDGPLVLIGSGLSSEQQKMLSELAVILKAKKYTEFDSTVTHVVVPGDAVQSTLKCMLGILNGCWILKFEWVKACLRRKVCEQEEKYEIPEGPRRSRLNREQLLPKLFDGCYFYLWGTFKHHPKDNLIKLVTAGGGQILSRKPKPDSDVTQTINTVAYHARPDSDQRFCTQYIIYEDLCNYHPERVRQGKVWKAPSSWFIDCVMSFELLPLDS
B5: GFP-WRN (enzyme)
chain: not shown

What was measured:
BRCA1–BARD1 complex [1] = target: T1, BRCA1–BARD1 complex (human, UniProt P38398 1-1863; Q99728 1-777); assay: pull-down
[2] = target: BRCA1 (subunit of the purified BRCA1–BARD1 complex) (human, UniProt P38398 1-1863); assay: mass photometry
BRCA1–BARD1 complex [3] = target: T1, BRCA1–BARD1 complex; assay: pull-down; remark: listed apart in the source

T1 sequence (P38398 whole entry, one chain of several): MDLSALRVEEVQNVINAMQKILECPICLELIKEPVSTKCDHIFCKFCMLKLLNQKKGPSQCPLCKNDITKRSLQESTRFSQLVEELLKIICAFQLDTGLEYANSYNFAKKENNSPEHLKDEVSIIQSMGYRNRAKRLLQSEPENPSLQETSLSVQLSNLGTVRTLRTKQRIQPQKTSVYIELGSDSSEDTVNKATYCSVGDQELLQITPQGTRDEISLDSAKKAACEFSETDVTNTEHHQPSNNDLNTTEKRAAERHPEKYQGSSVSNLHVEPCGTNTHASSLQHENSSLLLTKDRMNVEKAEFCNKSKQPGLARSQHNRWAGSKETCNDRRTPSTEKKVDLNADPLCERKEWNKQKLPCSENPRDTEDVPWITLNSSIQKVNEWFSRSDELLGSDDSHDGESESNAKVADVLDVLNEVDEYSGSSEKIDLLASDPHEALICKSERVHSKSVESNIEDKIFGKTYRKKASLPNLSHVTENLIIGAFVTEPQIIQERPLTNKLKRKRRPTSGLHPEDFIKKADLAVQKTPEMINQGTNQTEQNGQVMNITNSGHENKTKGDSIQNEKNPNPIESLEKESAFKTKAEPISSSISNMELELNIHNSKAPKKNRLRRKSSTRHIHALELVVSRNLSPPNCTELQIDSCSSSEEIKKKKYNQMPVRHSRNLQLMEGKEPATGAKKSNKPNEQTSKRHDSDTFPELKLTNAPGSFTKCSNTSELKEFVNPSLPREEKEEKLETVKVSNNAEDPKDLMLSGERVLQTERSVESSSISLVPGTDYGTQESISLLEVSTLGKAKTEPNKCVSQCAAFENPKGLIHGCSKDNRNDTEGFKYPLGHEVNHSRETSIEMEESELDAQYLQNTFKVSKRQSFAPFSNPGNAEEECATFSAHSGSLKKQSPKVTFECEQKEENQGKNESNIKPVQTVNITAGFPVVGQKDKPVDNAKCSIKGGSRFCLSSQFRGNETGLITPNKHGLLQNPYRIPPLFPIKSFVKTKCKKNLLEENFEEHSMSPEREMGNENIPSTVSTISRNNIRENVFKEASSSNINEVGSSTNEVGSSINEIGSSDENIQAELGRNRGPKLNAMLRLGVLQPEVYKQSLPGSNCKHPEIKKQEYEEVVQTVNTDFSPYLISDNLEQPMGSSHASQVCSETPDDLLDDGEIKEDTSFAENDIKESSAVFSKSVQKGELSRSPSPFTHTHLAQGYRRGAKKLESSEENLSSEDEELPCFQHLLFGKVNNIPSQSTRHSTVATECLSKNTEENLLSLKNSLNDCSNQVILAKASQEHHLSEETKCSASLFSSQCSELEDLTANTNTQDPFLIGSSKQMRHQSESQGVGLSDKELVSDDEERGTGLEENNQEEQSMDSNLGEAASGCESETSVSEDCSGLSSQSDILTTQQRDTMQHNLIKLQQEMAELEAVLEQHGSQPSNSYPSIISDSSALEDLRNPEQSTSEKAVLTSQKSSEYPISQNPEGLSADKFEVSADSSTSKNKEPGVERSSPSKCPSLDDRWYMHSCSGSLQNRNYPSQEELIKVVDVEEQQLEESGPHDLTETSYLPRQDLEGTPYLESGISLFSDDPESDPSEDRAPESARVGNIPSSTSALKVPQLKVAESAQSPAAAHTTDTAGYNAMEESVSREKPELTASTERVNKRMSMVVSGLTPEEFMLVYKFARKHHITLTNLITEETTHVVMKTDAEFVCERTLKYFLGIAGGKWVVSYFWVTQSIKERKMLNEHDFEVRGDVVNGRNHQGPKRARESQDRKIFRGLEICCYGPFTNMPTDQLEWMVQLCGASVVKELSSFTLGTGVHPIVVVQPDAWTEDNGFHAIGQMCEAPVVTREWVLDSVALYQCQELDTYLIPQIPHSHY
Chain of BRCA1 (subunit of the purified BRCA1–BARD1 complex) (P38398 whole entry, one chain of several): as above

Binder	binding result (BRCA1–BARD1 complex [1])	also measured
B1	binds	–
B2	binds	–
B3	binds	–
B4	–	stoichiometry N [2]: 1
B5	–	binding result (BRCA1–BARD1 complex [3]): binds
